Columns and labels:
Assay type in all cases: in vivo
[1] = system: Arabidopsis thaliana T1 plants; test: Isoxaflutole tolerance of transgenic Arabidopsis thaliana T1 plants (spray, bleached leaf area grade, damage score); set-up: Scores (pesticide damage): scale not given here; settings: spray, Arabidopsis thaliana T1 plants; for Classification and statistics of the grade of pesticide damage: Grade 0 (number of plants) / Classification and statistics of the grade of pesticide damage: Grade 1 (number of plants) / Classification and statistics of the grade of pesticide damage: Grade 2 (number of plants) / Classification and statistics of the grade of pesticide damage: Grade 3 (number of plants): 16 plants
Outline: (§1)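 Read-out: per-plant damage grade 0–3 from proportion of bleached leaf area at 7 DAT (1 <50%, 2 >50%, 3 100%). Plants were T1 transformants, glufosinate-selected, plus wild-type CK, sprayed 18 days post-sowing. Rates: topramezone 25–200, isoxaflutole 35–280, mesotrione 52.5–420 g ai/ha.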

[2] = system: Arabidopsis thaliana T1 plants; test: Topramezone tolerance of transgenic Arabidopsis thaliana T1 plants (spray, bleached leaf area grade, damage score); settings: 7 DAT, Table 4; for Classification and statistics of the grade of pesticide damage: Grade 0 / Classification and statistics of the grade of pesticide damage: Grade 1 / Classification and statistics of the grade of pesticide damage: Grade 2 / Classification and statistics of the grade of pesticide damage: Grade 3: number of plants; for Scores: pesticide damage score 0-100
Outline: as §1

[3] = system: Arabidopsis thaliana T1 plants; test: Mesotrione tolerance of transgenic Arabidopsis thaliana T1 plants (spray, bleached leaf area grade, damage score); set-up: Scores: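 damage score 0-100 computed as Σ(N×S)/(T×M)×100 over grades 0-3 with higher meaning more damage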; settings: Arabidopsis thaliana T1 plants; for Grade 0 (classification and statistics of the grade of pesticide damage; number of plants) / Grade 1 (classification and statistics of the grade of pesticide damage; number of plants) / Grade 2 (classification and statistics of the grade of pesticide damage; number of plants) / Grade 3 (classification and statistics of the grade of pesticide damage; number of plants): 16 plants
Outline: as §1

[4] = isoxaflutole 35 g ai/ha (0.5x field concentration)
[5] = isoxaflutole 70 g ai/ha (1x field concentration)

B1: MsHPPD-02: nucleotide sequence encoding wild-type Medicago sativa HPPD; vector DBN11734 (nucleic acid)
DNA: ATGGCTATTGAAACCGAAACACAAACTCAGACTGGATTTAAACTGGTAGGGTTCAAGAATTTCGTTAGGGCTAATCCCAAGTCTGATCGTTTTAAGGTCAAGAGGTTCCACCACGTGGAGTTCTGGTGCACTGATGCAACCAACACGGCGCGGCGTTTTTCACATGGTCTTGGAATGCCTATTGTTGCAAAATCCGACCTCTCCACGGGGAACCAAACACACGCCTCTTACCTGCTACGGAGTGGTGACTTGAACTTCCTCTTCAGCGCCGCCTACTCACCCTCCATATCGTTGTCTTCACCATCCTCGACCGCAGCAATTCCTACATTTTCTGCGAGCAACTGCTTCTCTTTCTCTGCCAGTCATGGCCTCGCCGTCAGAGCAGTGGCCGTTGAAGTAGAGGATGCTGAACTTGCTTTTACAACTTCAGTGAATAATGGAGCAATACCGAGCAGTCCGCCGGTCATACTTGAGAATCATGTGAAGCTAGCGGAGGTGAGGCTTTATGGGGACGTCGTTTTAAGATATGTCAGCTACAATGATCCAAACCCCAATCAAAATCCAAATTTGTTGTTCCTTCCTGGCTTCGAGCGTGTTAGCGATGAATCTTCAAACTCTTCACTGGATTTTGGAATCAGACGGTTGGATCATGCTGTTGGAAATGTTCCTGAACTCTCGAGCGCTGTGAAATATGTGAAGGACTTCACCGGTTTTCATGAATTTGCTGAGTTTACTGCAGAAGATGTGGGTACATCAGAGAGTGGCTTGAATTCCGTGGTGCTCGCCAACAACGAGGAGACTGTACTCTTACCAATGAATGAGCCAGTCTATGGCACCAAGCGTAAATCTCAAATTGAGACATATTTGGAGCACAATGAAGGAGCTGGACTTCAGCATCTCGCGCTGAAGAGTGAGGACATCTTCCGCACCCTACGGGAGATGAGGAAAAGAAGTGGTGTTGGTGGGTTTGAATTCATGCCATCACCTCCTGTCACCTACTACAGGAACCTGAAGAACAGAGTTGGTGATGTACTTTCGGACGAGCAGATAAAGGAATGTGAAGAGTTGGGGATTTTGGTTGATAGAGATGATCAAGGAACACTCCTGCAGATTTTTACAAAACCAATTGGCGACCGCCCCACTATCTTCATAGAGATCATCCAGAGGGTGGGGTGCATGCTCAAAGACGAGGAAGGGAAGGAGTACCAGAAGGGCGGCTGTGGTGGTTTTGGGAAAGGAAACTTTTCTGAGTTATTCAAATCAATTGAAGAGTATGAGAAGACGCTTGAAACGCGTCGCACTGCTTGA
modifications: MsHPPD-02 Nucleotide Sequence
notes: vector DBN11734
[1]; [4]
  Resistance evaluation: Non-resistant
  Scores (pesticide damage): 100
  Classification and statistics of the grade of pesticide damage: Grade 0 (number of plants): 0
  Classification and statistics of the grade of pesticide damage: Grade 1 (number of plants): 0
  Classification and statistics of the grade of pesticide damage: Grade 2 (number of plants): 0
  Classification and statistics of the grade of pesticide damage: Grade 3 (number of plants): 16
[1]; [5]
  Resistance evaluation: Non-resistant
  Scores (pesticide damage): 100
  Classification and statistics of the grade of pesticide damage: Grade 0 (number of plants): 0
  Classification and statistics of the grade of pesticide damage: Grade 1 (number of plants): 0
  Classification and statistics of the grade of pesticide damage: Grade 2 (number of plants): 0
  Classification and statistics of the grade of pesticide damage: Grade 3 (number of plants): 16
[2]; topramezone 25 g ai/ha (1×)
  Classification and statistics of the grade of pesticide damage: Grade 0: 0
  Classification and statistics of the grade of pesticide damage: Grade 1: 0
  Classification and statistics of the grade of pesticide damage: Grade 2: 0
  Classification and statistics of the grade of pesticide damage: Grade 3: 16
  Scores: 100
  Resistance evaluation: non-resistant (non-resistant plants (scores 68-100))
[2]; topramezone 100 g ai/ha (4×)
  Classification and statistics of the grade of pesticide damage: Grade 0: 0
  Classification and statistics of the grade of pesticide damage: Grade 1: 0
  Classification and statistics of the grade of pesticide damage: Grade 2: 0
  Classification and statistics of the grade of pesticide damage: Grade 3: 16
  Scores: 100
  Resistance evaluation: non-resistant (non-resistant plants (scores 68-100))
[3]; mesotrione 52.5 g ai/ha
  Resistance evaluation: Non-resistant
  Scores: 100
  Grade 0 (classification and statistics of the grade of pesticide damage; number of plants): 0
  Grade 1 (classification and statistics of the grade of pesticide damage; number of plants): 0
  Grade 2 (classification and statistics of the grade of pesticide damage; number of plants): 0
  Grade 3 (classification and statistics of the grade of pesticide damage; number of plants): 16
[3]; mesotrione 105 g ai/ha
  Resistance evaluation: Non-resistant
  Scores: 100
  Grade 0 (classification and statistics of the grade of pesticide damage; number of plants): 0
  Grade 1 (classification and statistics of the grade of pesticide damage; number of plants): 0
  Grade 2 (classification and statistics of the grade of pesticide damage; number of plants): 0
  Grade 3 (classification and statistics of the grade of pesticide damage; number of plants): 16

Source: US20250043302A1, “MUTATED HYDROXYPHENYLPYRUVATE DIOXYGENASE POLYPEPTIDE, AND CODING GENE AND USE THEREOF” (BEIJING DABEINONG BIOTECHNOLOGY CO., LTD., priority 2021, published 2025)
